Residue numbers refer to the chain shown, from its start.

This passage reports Ki results from patent US20110135573A1, “METALLOPROTEINASE 9 AND METALLOPROTEINASE 2 BINDING PROTEINS” (DYAX CORP., priority 2009, published 2011).

Assay [1] concerns the target mouse MMP-2 (R&D Systems #924-MP-010) (mouse) (UniProt P33434). In words: Ki,app, enzyme inhibition assay (fluorogenic peptide substrate), small-scale sFab.
Assay [2] shares this target. The assay can be described thus: Ki,app, enzyme inhibition assay (fluorogenic peptide substrate), medium-scale sFab.
For assay [3] the target is unchanged. The assay can be described thus: Ki,app, enzyme inhibition assay (fluorogenic peptide substrate), IgG.

B1: M0301-D12 (Fab, V domains shown)
VH: EVQLLESGGGLVQPGGSLRLSCAASGFTFSMYDMWWVRQAPGKGLEWVSVIYSSGGYTSYADSVKGRFTISRDNSKNTLYLQMNSLRAEDTAVYYCAKDRAYGDYVGWNGFDYWGQGTLVTVSS
VL: DIQMTQSPATLSLSPGERATLSCRASQSISSFLAWYQQKPGQAPRLLIYDASYRATGIPARFSGSGSGTDFTLTISSLEPEDYAVYYCQQRGNWPITFGQGTRLEIK
As for B1, the Ki in assay [1] and in assay [2] was 25 nM throughout.

B2: M0273-G07 (Fab, V domains shown)
VH: B1 VH with M31H, S53P, Y57P, S59Y
VL: B1 VL
With B2, the Ki in assay [1] and in assay [2] was 22 nM throughout.

B3: M0273-C10 (Fab, V domains shown)
VH: B1 VH with M31F, D33P, V50Y, S53P, Y57A, S59F
VL: B1 VL
Take B3: the Ki in assay [1] and in assay [2] was 18 nM throughout.

B4: M0307-F04 (Fab, V domains shown)
VH: B1 VH with M31L, S59G
VL: B1 VL
On to B4, for which the Ki in assay [1] and in assay [2] was 2.2 nM throughout.

B5: X0106-F05 (antibody, V domains shown)
VH: B1 VH with M31L, S59G
VL: B1 VL with D1E, Q3V, M4L, Y83F
Molecule B5 had a Ki in assay [3] of 3 nM.

B6: M0274-G08 (Fab, V domains shown)
VH: B1 VH with M31V, S53P, Y57A, S59Y
VL: B1 VL
On to B6, for which the Ki in assay [1] and in assay [2] was 2.7 nM in each case.

B7: M0275-D03 (Fab, V domains shown)
VH: EVQLLESGGGLVQPGGSLRLSCAASGFTFSQYDMWWVRQAPGKGLEWVSVIYPSGTTFYADSVKGRFTISRDNSKNTLYLQMNSLRAEDTAVYYCAKDRAYGDYVGWNGFDYWGQGTLVTVSS
VL: B1 VL
As to B7, the Ki in assay [1] and in assay [2] was 5.4 nM in each case.

B8: M0273-B10 (Fab, V domains shown)
VH: B1 VH with M31K, D33A, W35I, V50W, Y52P, S53P
VL: B1 VL
On to B8, for which the Ki in assay [1] and in assay [2] was 59 nM in each case.

B9: M0276-F11 (Fab, V domains shown)
VH: B1 VH with M31W, Y57P, S59F
VL: B1 VL
Regarding B9, the Ki in assay [1] and in assay [2] was 3.7 nM in each case.

B10: M0275-E12 (Fab, V domains shown)
VH: B1 VH with M31H, Y57F, S59G
VL: B1 VL
Take B10: the Ki in assay [1] and in assay [2] was 15 nM each time.

B11: M0256-D11 (Fab, V domains shown)
VH: B1 VH with M31H, Y57P, S59F
VL: B1 VL
As to B11, the Ki in assay [1] and in assay [2] was 4.2 nM throughout.

B12: M0273-A11 (Fab, V domains shown)
VH: B1 VH with M31R, Y52S, S53P, Y57A, S59F
VL: B1 VL
With B12, the Ki in assay [1] and in assay [2] was 32 nM in each case.

B13: X0106-B02 (antibody, V domains shown)
VH: B1 VH with M31W, Y57P, S59F
VL: B1 VL with D1E, Q3V, M4L, Y83F
As to B13, in assay [3], the Ki amounted to 4.2 nM.

B14: M0272-H08 (Fab, V domains shown)
VH: B1 VH with M31A, S53P, Y57T, S59F
VL: B1 VL
As for B14, the Ki in assay [1] and in assay [2] was 46 nM each time.

B15: M0301-A09 (Fab, V domains shown)
VH: B1 VH with M31Y, S53P, S59A
VL: B1 VL
B15: the Ki in assay [1] and in assay [2] was 21 nM each time.

B16: X0106-C03 (antibody, V domains shown)
VH: B1 VH with M31V, S53P, Y57A, S59Y
VL: B1 VL with D1E, Q3V, M4L, Y83F
B16 yielded a Ki in assay [3] of 3.2 nM.

B17: X0106-E04 (antibody, V domains shown)
VH: B7 VH
VL: B1 VL with D1E, Q3V, M4L, Y83F
B17 came in with a Ki in assay [3] of 3.9 nM.

B18: 539A-M0237-D02 hIgG1 (antibody, V domains shown)
VH: B1 VH with M31Q, D33P, V50Y, Y52V, S53P, Y57R, S59Y
VL: B1 VL
B18 had a Ki in assay [3] of 76 nM.

B19: M0299-A12 (Fab, V domains shown)
VH: B1 VH with M31H, D33P, V50Y, Y52S, Y57G, S59F
VL: B1 VL
As to B19, the Ki in assay [1] and in assay [2] was 30 nM each time.
